# Measurements from IntAct's records for PubMed 15467741.
# B1: Merlin (Homo sapiens), P35240-1 (parent)
# chain: MAGAIASRMSFSSLKRKQPKTFTVRIVTMDAEMEFNCEMKWKGKDLFDLVCRTLGLRETWFFGLQYTIKDTVAWLKMDKKVLDHDVSKEEPVTFHFLAKFYPENAEEELVQEITQHLFFLQVKKQILDEKIYCPPEASVLLASYAVQAKYGDYDPSVHKRGFLAQEELLPKRVINLYQMTPEMWEERITAWYAEHRGRARDEAEMEYLKIAQDLEMYGVNYFAIRNKKGTELLLGVDALGLHIYDPENRLTPKISFPWNEIRNISYSDKEFTIKPLDKKIDVFKFNSSKLRVNKLILQLCIGNHDLFMRRRKADSLEVQQMKAQAREEKARKQMERQRLAREKQMREEAERTRDELERRLLQMKEEATMANEALMRSEETADLLAEKAQITEEEAKLLAQKAAEAEQEMQRIKATAIRTEEEKRLMEQKVLEAEVLALKMAEESERRAKEADQLKQDLQEAREAERRAKQKLLEIATKPTYPPMNPIPAPLPPDIPSFNLIGDSLSFDFKDTDMKRLSMEIEKEKVEYMEKSKHLQEQLNELKTEIEALKLKERETALDILHNENSDRGGSSKHNTIKKLTLQSAKSRVAFFEEL
# partner: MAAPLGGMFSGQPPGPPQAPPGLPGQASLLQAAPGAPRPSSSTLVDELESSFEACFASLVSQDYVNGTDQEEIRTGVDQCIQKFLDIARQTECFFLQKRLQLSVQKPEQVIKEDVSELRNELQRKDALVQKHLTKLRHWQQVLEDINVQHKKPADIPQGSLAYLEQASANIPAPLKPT
# B2: Merlin (Homo sapiens), P35240-3 (parent)
# chain: MAGAIASRMSFSSLKRKQPKTFTVRIVTMDAEMEFNCEMKWKGKDLFDLVCRTLGLRETWFFGLQYTIKDTVAWLKMDKKVLDHDVSKEEPVTFHFLAKFYPENAEEELVQEITQHLFFLQVKKQILDEKIYCPPEASVLLASYAVQAKYGDYDPSVHKRGFLAQEELLPKRVINLYQMTPEMWEERITAWYAEHRGRARDEAEMEYLKIAQDLEMYGVNYFAIRNKKGTELLLGVDALGLHIYDPENRLTPKISFPWNEIRNISYSDKEFTIKPLDKKIDVFKFNSSKLRVNKLILQLCIGNHDLFMRRRKADSLEVQQMKAQAREEKARKQMERQRLAREKQMREEAERTRDELERRLLQMKEEATMANEALMRSEETADLLAEKAQITEEEAKLLAQKAAEAEQEMQRIKATAIRTEEEKRLMEQKVLEAEVLALKMAEESERRAKEADQLKQDLQEAREAERRAKQKLLEIATKPTYPPMNPIPAPLPPDIPSFNLIGDSLSFDFKDTDMKRLSMEIEKEKVEYMEKSKHLQEQLNELKTEIEALKLKERETALDILHNENSDRGGSSKHNTIKKPQAQGRRPICI
# partner: B1 partner
# Variants of: B1
# Details: with med28_human MED28, Q9H204
row,Variant,effect of a mutation on the interaction
1,MAGAIASRMSFSSLKRKQPKTFTVRIVTMDAEMEFNCEMKWKGKDLFDLVCRTLGLRETWFFGLQYTIKDTVAWLKMDKKVLDHDVSKEEPVTFHFLAKFYPENAEEELVQEITQHLFFLQVKKQILDEKIYCPPEASVLLASYAVQAKYGDYDPSVHKRGFLAQEELLPKRVINLYQMTPEMWEERITAWYAEHRGRARDEAEMEYLKIAQDLEMYGVNYFAIRNKKGTELLLGVDALGLHIYDPENRLTPKISFPWNEIRNISYSDKEFTIKPLDKKIDVFKFNSSKLRVNKLILQLCIGNHDLFMRRRKADSLEVQQMKAQAREEKARKQMERQRLAREKQMREEAERTRDELERRLLQMKEEATMANEALMRSEETADLLAEKAQITEEEAKLLAQKAAEAEQEMQRIKATAIRTEEEKRLMEQKVLEAEVLALKMAEESERRAKEADQLKQDLQEAREAERRAKQKLLEIATKPTYPPMNPIPAPLPPDIPSFNLIGDSLSFDFKDTDMKRLAMEIEKEKVEYMEKSKHLQEQLNELKTEIEALKLKERETALDILHNENSDRGGSSKHNTIKKLTLQSAKSRVAFFEEL [S518A],increasing interaction

# Variants of: B2
# Details: with med28_human MED28, Q9H204
row,Variant,effect of a mutation on the interaction
1,MAGAIASRMSFSSLKRKQPKTFTVRIVTMDAEMEFNCEMKWKGKDLFDLVCRTLGLRETWFFGLQYTIKDTVAWLKMDKKVLDHDVSKEEPVTFHFLAKFYPENAEEELVQEITQHLFFLQVKKQILDEKIYCPPEASVLLASYAVQAKYGDYDPSVHKRGFLAQEELLPKRVINLYQMTPEMWEERITAWYAEHRGRARDEAEMEYLKIAQDLEMYGVNYFAIRNKKGTELLLGVDALGLHIYDPENRLTPKISFPWNEIRNISYSDKEFTIKPLDKKIDVFKFNSSKLRVNKLILQLCIGNHDLFMRRRKADSLEVQQMKAQAREEKARKQMERQRLAREKQMREEAERTRDELERRLLQMKEEATMANEALMRSEETADLLAEKAQITEEEAKLLAQKAAEAEQEMQRIKATAIRTEEEKRLMEQKVLEAEVLALKMAEESERRAKEADQLKQDLQEAREAERRAKQKLLEIATKPTYPPMNPIPAPLPPDIPSFNLIGDSLSFDFKDTDMKRLAMEIEKEKVEYMEKSKHLQEQLNELKTEIEALKLKERETALDILHNENSDRGGSSKHNTIKKPQAQGRRPICI [S518A],increasing interaction
